For one assay, the target named is T1, human CD19 (human, UniProt P15391 20-556).
T1 sequence (looked up): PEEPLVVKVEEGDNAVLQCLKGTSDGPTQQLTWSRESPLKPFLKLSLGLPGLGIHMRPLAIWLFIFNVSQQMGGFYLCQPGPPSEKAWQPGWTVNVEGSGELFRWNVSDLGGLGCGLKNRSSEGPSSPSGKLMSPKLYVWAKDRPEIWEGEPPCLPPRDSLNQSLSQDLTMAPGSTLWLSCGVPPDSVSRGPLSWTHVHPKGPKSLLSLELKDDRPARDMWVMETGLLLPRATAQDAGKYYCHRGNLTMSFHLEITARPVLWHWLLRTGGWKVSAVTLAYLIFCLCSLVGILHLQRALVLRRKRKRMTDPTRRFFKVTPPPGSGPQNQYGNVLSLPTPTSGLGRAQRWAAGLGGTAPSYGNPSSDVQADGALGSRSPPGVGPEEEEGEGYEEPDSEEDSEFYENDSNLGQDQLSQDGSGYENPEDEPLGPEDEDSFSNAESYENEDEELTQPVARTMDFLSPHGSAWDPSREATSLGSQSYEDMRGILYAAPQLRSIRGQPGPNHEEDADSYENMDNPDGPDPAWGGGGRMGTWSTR
Put plainly: cell-based or functional assay.

Assay [1] has as its target T2, CD19-ECD-GGSG-NLuc-AcV5 (human).
T2 construct: also called CD19-GGSG-NLuc-AcV5; Flag-CD19-GGSG-NLuc-AcV5
T2 chain: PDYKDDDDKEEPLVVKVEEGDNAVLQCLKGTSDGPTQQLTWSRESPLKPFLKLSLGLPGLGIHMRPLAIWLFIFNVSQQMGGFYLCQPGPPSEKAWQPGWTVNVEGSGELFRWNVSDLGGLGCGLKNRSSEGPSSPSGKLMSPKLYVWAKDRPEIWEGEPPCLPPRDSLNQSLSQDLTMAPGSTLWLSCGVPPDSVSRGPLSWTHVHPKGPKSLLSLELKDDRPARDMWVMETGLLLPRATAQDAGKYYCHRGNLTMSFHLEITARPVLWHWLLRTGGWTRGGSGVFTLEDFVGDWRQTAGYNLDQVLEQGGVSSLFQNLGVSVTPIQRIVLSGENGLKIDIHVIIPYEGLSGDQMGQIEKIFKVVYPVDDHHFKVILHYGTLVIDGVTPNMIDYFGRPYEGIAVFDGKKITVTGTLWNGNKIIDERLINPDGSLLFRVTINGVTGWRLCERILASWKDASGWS
Nature of the assay: NLuc binding assay, SIR on Jurkat-NFAT-GFP cells.

Assay [2] has as its target T2, CD19-ECD-GGSG-NLuc-AcV5. Nature of the assay: NLuc binding assay, SIR on Jurkat-NFAT-Luc cells.
Assay [3] has as its target T2, CD19-ECD-GGSG-NLuc-AcV5. Nature of the assay: NLuc binding assay, single chain unit in Jurkat-NFAT-GFP cells.

Where a chain is given by its changes, count along the chain named. Names may count otherwise.

B1: CD8SP-hu-FMC65-1-vL-[hTCRb-D59C]-F-P2A-SP-hu-FMC65-1-vH-[hTCRa-T45C] (other)
TCR beta: DVVMTQSPSSLSASVGDRVTITCRASQDISKYLNWYQQKPGKAPKLLIYHTSRLHSGVPSRFSGSGSGTDFTLTISSLQPEDFATYYCQQGNTLPYTFGGGTKVEIKEDLKNVFPPEVAVFEPSEAEISHTQKATLVCLATGFYPDHVELSWWVNGKEVHSGVSTCPQPLKEQPALNDSRYCLSSRLRVSATFWQNPRNHFRCQVQFYGLSENDEWTQDRAKPVTQIVSAEAWGRADCGFTSESYQQGVLSATILYEILLGKATLYAVLVSALVLMAMVKRKDSRG
TCR alpha: QVQLQESGPGLVKPSQTLSLTCTVSGVSLPDYGVSWIRQPPGKGLEWIGVIWGSETTYYNSALKSRVLISVDTSKNQVSLKLSSVTAADTAVYYCARHYYYGGSYAMDYWGQGTTVTVSSIQNPDPAVYQLRDSKSSDKSVCLFTDFDSQTNVSQSKDSDVYICDKTVLDMRSMDFKSNSAVAWSNKSDFACANAFNNSIIPEDTFFPSPESSCDVKLVEKSFETDTNLNFQNLSVIGFRILLLKVAGFNLLMTLRLWSS
For the molecule B1, the “NFAT-GFP (%) after co-culture with RAJI cells” value (“NFAT-GFP (%) after co-culture” below) with human CD19 amounted to 1.35%.

B2: CD8SP-hu-FMC65-1-vL-[hTCRb-S77C]-F-P2A-SP-hu-FMC65-1-vH-[hTCRa-T45C] (other)
TCR beta: B1 TCR beta with C166D, S184C
TCR alpha: B1 TCR alpha
Take B2: the “NFAT-GFP (%) after co-culture” value in the assay with human CD19 is 0.9%.

B3: CD8SP-hu-FMC65-1-vL-[hTCRb-E15C]-F-P2A-SP-hu-FMC65-1-vH-[hTCRa-S15C] (other)
TCR beta: B1 TCR beta with E122C, C166D
TCR alpha: B1 TCR alpha with S134C, C164T
As to B3, the “NFAT-GFP (%) after co-culture” value with human CD19 was 2.48%.

B4: CD8SP-hu-FMC65-1-vL-[hTCRb-S17C]-F-P2A-SP-hu-FMC65-1-vH-[hTCRa-Y10C] (other)
TCR beta: B1 TCR beta with S124C, C166D
TCR alpha: B1 TCR alpha with Y129C, C164T
In the case of B4, the “NFAT-GFP (%) after co-culture” value with human CD19 was 1.99%.

B5: CD8SP-FMC63-vL-V5-[hTCRb-WT]-F-P2A-SP-FMC63-vH-Myc-[hTCRa-WT]-F-F2A-PAC (080815-F02)[SEQ ID NO:922] (other)
TCR beta: DIQMTQTTSSLSASLGDRVTISCRASQDISKYLNWYQQKPDGTVKLLIYHTSRLHSGVPSRFSGSGSGTDYSLTISNLEQEDIATYFCQQGNTLPYTFGGGTKLEITGKPIPNPLLGLDSTGSGEDLKNVFPPEVAVFEPSEAEISHTQKATLVCLATGFYPDHVELSWWVNGKEVHSGVSTDPQPLKEQPALNDSRYCLSSRLRVSATFWQNPRNHFRCQVQFYGLSENDEWTQDRAKPVTQIVSAEAWGRADCGFTSESYQQGVLSATILYEILLGKATLYAVLVSALVLMAMVKRKDSRG
TCR alpha: EVKLQESGPGLVAPSQSLSVTCTVSGVSLPDYGVSWIRQPPRKGLEWLGVIWGSETTYYNSALKSRLTIIKDNSKSQVFLKMNSLQTDDTAIYYCAKHYYYGGSYAMDYWGQGTSVTVSSEQKLISEEDGSGIQNPDPAVYQLRDSKSSDKSVCLFTDFDSQTNVSQSKDSDVYITDKTVLDMRSMDFKSNSAVAWSNKSDFACANAFNNSIIPEDTFFPSPESSCDVKLVEKSFETDTNLNFQNLSVIGFRILLLKVAGFNLLMTLRLWSS
notes: SIR with wild-type TCR constant chains; Polyprotein PRT 3157
For B5, the “CD19-GGSG-NLuc (RLU)” value in the assay with CD19-ECD-GGSG-NLuc-AcV5 [1] came to 768 RLU. Besides, the binding result with CD19-ECD-GGSG-NLuc-AcV5 [2] is on record as “no binding”.

B6: CD8SP-FMC63-vL-V5-[hTCRb-KACIAH]-F-P2A-PAC (other)
TCR beta: B5 TCR beta with E142K, S146A, S181C, F257I, E260A, Q263H
notes: One functional polypeptide unit alone in Jurkat-NFAT-GFP cells; PRT 3148; also called 050216-S08
As to B6, in the assay with CD19-ECD-GGSG-NLuc-AcV5 [3], the binding result is listed as “no binding”.

B7: CD8SP-FMC63-vH-MYC-[TCRα-CSDVP]-F-F2A-BlastR (other)
TCR alpha: B5 TCR alpha with T179C, P222S, E223D, S224V, S225P
notes: One functional polypeptide unit alone in Jurkat-NFAT-GFP cells; PRT 3232; also called 041916-A02
As for B7, in the assay with CD19-ECD-GGSG-NLuc-AcV5 [3], the binding result is recorded as “no binding”.

(Values after US20260167693A1 (ANGELES THERAPEUTICS, published 2026).)
